Numbered stars: 1 amine (or outer) side, 2 acyl side, 3 side chain; on linkers, the order of the positions; unused ones are H or OH. Square brackets hold non-standard residues; d marks the D form. * marks the point of attachment. εLys = N[C@@H](CCCCN[*:1])C(=O)[*:2]; Palmitoyl = CCCCCCCCCCCCCCCC(=O)*; Cit = NC(=O)NCCC[C@H](N)C(=O)O; Ahx = NCCCCCC(=O)O; βAla = NCCC(=O)O
What was measured:
PAR2 = target: T1, PAR2 (Homo sapiens, UniProt P55085); assay: Calcium flux assay, antagonist activity against SLIGRL in SW620 cells endogenously expressing PAR2; format: cell-based; conditions: 1 min pretreatment, 8 μM SLIGRL agonist
T1 construct: SW620 human colon adenocarcinoma cells that endogenously express PAR2; endogenous in cells; host or cells: SW620 human colon adenocarcinoma cells
T1 sequence (P55085 26-397): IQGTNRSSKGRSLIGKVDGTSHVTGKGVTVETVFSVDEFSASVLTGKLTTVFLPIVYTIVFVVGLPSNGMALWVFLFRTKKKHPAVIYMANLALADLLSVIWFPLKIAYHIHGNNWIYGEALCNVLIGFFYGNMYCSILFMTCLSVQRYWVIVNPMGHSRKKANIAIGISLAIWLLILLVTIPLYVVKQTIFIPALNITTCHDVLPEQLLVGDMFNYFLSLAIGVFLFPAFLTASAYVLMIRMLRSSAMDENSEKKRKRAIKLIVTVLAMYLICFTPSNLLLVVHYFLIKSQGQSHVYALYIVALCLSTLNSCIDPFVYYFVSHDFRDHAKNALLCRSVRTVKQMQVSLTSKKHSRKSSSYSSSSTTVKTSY
Procedure: Table 2 provides the antagonist activity for the resulting palmitoylated peptides (SEQ ID NO: 1-11, 13-41, and 70) of Table 1. Table 2 also provides the antagonist activity for the resulting myristoylated peptide SEQ ID NO: 12 of Table 1. Antagonist activity of the peptides were measured using calcium flux assays with SW620 human colon adenocarcinoma cells that endogenously express PAR2. The calcium signal of […] SLIGRL (SEQ ID NO: 73) following 1 min pretreatment with 3 μM or 10 μM of palmitoylated peptides. Final concentration of DMSO vehicle was 0.2%. Antagonist activity of 3 μM and 10 μM peptides against 8 μM SLIGRL (SEQ ID NO: 73; a known PAR2 agonist) was measured by maximal calcium flux. Experiments were repeated at least 2-3 times each and gave similar results.

db/db mouse = assay: Obese-diabetic (db/db) mouse model, daily SC treatment for 3 weeks; format: in vivo; conditions: db/db mice, 10 mg/kg SC daily, over 3 weeks
Procedure: FIGS. 1A to 1B. Male obese-diabetic (db/db) mice, 6-8 weeks of age were purchase from Charles River Labs. The db/db mouse is a […] animal which serves as a model for diabetes, obesity and dyslipidemia. Animals were randomized according to blood glucose and body weight on day −2 and were allowed to eat a normal chow diet ad libitum. Treatment was initiated from day 0 with mice receiving daily subcutaneous (SC) injections (5 mL/kg) at 7-10 AM. HbA1c was monitored on days 0, 7, 14 and 21. Mice (n=10) were treated daily with either 10 mg/kg N-palmitoylated-SEQ70 (PZ-235) or vehicle (“Veh”). […] HbA1c levels reflect long-term blood glucose levels. […]
FIG. 2. Diabetic mice from the experiment in FIGS. 1A and 1B had their morning blood glucose measured thrice weekly.
FIG. 3. Diabetic mice had their blood glucose profile monitored on days 1, 8 and 22. […]
FIGS. 5A to 5B. Diabetic mice had their plasma triglyceride levels measured at baseline and after 3 weeks of treatment with PZ-235 versus vehicle.
FIG. 6. Diabetic mice had their liver triglyceride levels measured after 3 weeks of treatment with PZ-235 versus vehicle. At termination of the 3 week experiment, livers were isolated from the diabetic mice, snap frozen and liver triglycerides measured.

| Compound | Max (% Inh), maximal calcium flux (PAR2; 3 uM peptide) [%] | Max (% Inh), maximal calcium flux (PAR2; 10 uM peptide) [%] | food intake versus vehicle group (db/db mouse) | weight gain versus vehicle group (db/db mouse) |
| --- | --- | --- | --- | --- |
| 1 (GHENSEKKRKQAIK) [compound 1] | 33 | 85 | – | – |
| 2 (GDHNSEKKRKQAIK) [compound 2] | 23 | 78 | – | – |
| 3 (DSEKKRKQAIKLI) [compound 3] | 49 | 89 | – | – |
| 4 (RSSAIDENSEKKRKSAIK) [compound 4] | 24 | 82 | – | – |
| 5 (AIDENSEKKFKSAIKL) [compound 5] | 18 | 32 | – | – |
| 7 (Pal-AIHHDSE[dP]KRKSAIKL-NH2) [compound 7] | 50 | 84 | – | – |
| 8 (Pal-AIHHDSE[dP]RKSAAKL-NH2) [compound 8] | 16 | 18 | – | – |
| 9 (Pal-GLHHDSEPKRKSAIKL[dI]-NH2) [compound 9] | 75 | 95 | – | – |
| 11 (Pal-PLHHDSEPKR[dK]SAIK[dL]-NH2) [compound 11] | 31 | 95 | – | – |
| 14 (Pal-[εLys]LDENSEKKF[dK]SAIKL[dV]-NH2) [compound 14] | 8 | 26 | – | – |
| 16 (Pal-GLHHDSEPKR[dK][βAla]IK[dV]-NH2) [compound 16] | 17 | 60 | – | – |
| 17 (Palmitoyl-[Ahx]LHHDSEPKR[dK]SAIK[dV]-NH2) [compound 17] | 10 | 66 | – | – |
| 20 (Pal-[εLys]AIDENSEKKFKSAIKL-NH2) [compound 20] | 17 | 86 | – | – |
| 25 (AMDENSEKKYKSAIKL) [compound 25] | 23 | 29 | – | – |
| 30 (GLDENSEPKRKSAIKLI) [compound 30] | 6 | 0 | – | – |
| 31 (GDENHEKKRKQAIK) [compound 31] | 38 | 65 | – | – |
| 32 (PGDENSEKPKRKQAIK) [compound 32] | – | 93 | – | – |
| 33 (GPDENSEKKPRKQAIK) [compound 33] | 23 | 93 | – | – |
| 34 (Palmitoyl-GDENSEKK[Cit]KQAIK-NH2) [compound 34] | 23 | 93 | – | – |
| 35 (Pal-GDENSEKKRKSAIK[dA]-NH2) [compound 35] | 23 | 65 | – | – |
| 36 (GDENSEKKRKQAIKL) [compound 36] | 65 | 65 | – | – |
| 37 (GDENSEKKRKQAIKLI) [compound 37] | 0 | 65 | – | – |
| 38 (GDENSEKKRKQAIK) [compound 38] | 23 | 65 | – | – |
| 39 (GDENSEKRWLWAIK) [compound 39] | 23 | 93 | – | – |
| 40 (GDENSEKKRKWAIK) [compound 40] | 38 | 93 | – | – |
| 41 (MDENSEKKRKRAIK) [compound 41] | 38 | 65 | – | – |
| CCCCCCCCCCCCCCCC(=O)N[C@@H](CCCNC(=N)N)C(=O)N[C@@H](CO)C(=O)N[C@@H](CO)C(=O)N[C@@H](C)C(=O)N[C@@H](CCSC)C(=O)N[C@@H](CC(=O)O)C(=O)N[C@@H](CCC(=O)O)C(=O)N[C@@H](CC(N)=O)C(=O)N[C@@H](CO)C(=O)N[C@@H](CCC(=O)O)C(=O)N[C@@H](CCCCN)C(=O)N[C@@H](CCCCN)C(=O)N[C@@H](CCCNC(=N)N)C(=O)N[C@@H](CCCCN)C(=O)N[C@@H](CO)C(=O)N[C@@H](C)C(=O)N[C@H](C(=O)N[C@@H](CCCCN)C(N)=O)[C@@H](C)CC [SEQ ID NO 70] | – | – | did not vary significantly | did not vary significantly |

Source: patent publication US11732027B2, “Protease-activated receptor-2 modulators” (Oasis Pharmaceuticals, LLC, priority 2015, dated 2023)
